# According to the nanobody polyreactivity screen of Harvey et al. (2022):
# Assay: yeast display, Sf9 membrane polyspecificity reagent, FACS + sequencing; frameworks hold sequencing errors
# Outline: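 Galactose-induced (36–48 hours) yeast carrying a synthetic nanobody display library were exposed to 10% biotinylated, detergent-solubilized Sf9 membrane reagent at 4 °C for 1 hour. FACS followed streptavidin microbead enrichment, using low and high (top ~1%) gates for expression (anti-HA) and reagent binding (streptavidin). Colony PCR, MiSeq 2 × 250 sequencing and CDR-length filtering followed. Labels for polyreactivity reflect the gate of origin.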
row,Sequence,polyreactivity (PSR sort gate)
1,QVQLVESGGALVQAGGSLRLSCAASGSISTYAIGWYRQAPGKERELVAAMNKRGGSTYYADSVKGRFTISRDNAKNTVDLQMNSLKPADTAVDYCAAGLAHSAAFDYWGQGTQVTVSS,low polyreactivity
2,QVQLVESGGALVQAGGSLRLSCAASGSTFPYYAMGWYRQAPGKERELVAAISRGGGITYYADSVKGRLTISRDNAKNTVYLQMISLKPEDTAVYYCAARGFWWPYTYYYWGQGTQVTVSS,high polyreactivity
3,QVQLVESGGALVQAGGSLRLSCAASGSTFRYDMGWYRQAPGKERELVAAITWGGVSTYYADSVKGRFTISRDNAKNTVYLQMNSLKPEDTAVYYCNVVISLQQGDYWGQGTQVTVSS,low polyreactivity
4,QVQLVESGGALVQAGGSLRLSCAASGSTFYGYAMGWYRQATGKERELVASITTRGGRTNYADSVKVRFTISRDNAKNTVYLEMNSLKPEDNSVYYCATYSYVTRYARWGEFDYWGQGTQVTVSS,high polyreactivity
5,QVQLVESGGALVQAGGSLRLSCAASGSTFYRNAMGWYRPAPGKERELVATISSSDGSTYYADSVKGRFTISRDNAKNTVYVQMNSLKPEDTAVYYCNADPISSGSVANFQYDYCGQGTQVTVSS,low polyreactivity
6,QVQLVESGGALVQAGGSLRLSCAASGSTMGWYRQAPGKVREFVAAIRWIGGGTYYADSVKGRFTISRDNAKNTVYLQMNSLKPEDTGVYYCAARLSVAWVGYDYWGQGTQVTVSS,low polyreactivity
7,QVQLVESGGALVQAGGSLRLSCAASGSTSYTNAMGLYRHAPGKEREFVASISLSAGSTYYADSVKGRFKISRDNAKNTVYLQMNSLKPEDTAVYYCASESVAILGLVYPKGYGYWGQGTQVTVSS,low polyreactivity
8,QVQLVESGGALVQAGGSLRLSCAASGYTFCYNAMGWYRQAPGKEREFVAAISWSGGSTYYADSVKGRFTISRDNAKNTVYLQMYSLKPEDTAVYYCAVEGVYWYVSMYYWGQGTQVTVSS,low polyreactivity
9,QVQLVESGGALVQAGGSLRLSCAASGYTFSKYAMGWYRQAPGKERELVAAISKRGGSTSYADSVKGRFTISRDNAKNTVYLQMNILKPEDTAVYYCNAREWSRTFDYWGQGSQVTVSS,high polyreactivity
10,QVQLVESGGALVQAGGTLRLSGAASGIIFDGYAMGWYRQAPGKEREFVAVISSSGGTTYYADSVKGRFTISRDNAKNTVYLQMNRLKPEDSAVYYCACVYVSLWPSATYWSGFGYWGQGTKVTVSS,low polyreactivity
11,QVQLVESGGALVQARGSLRLSSAASGSIFPFYAMPSYRQAPGKERELVAAISDRGGSTYYADSVKGRFTISRDNAKNTVYLQMNSLKPEDTAVYYCAVDGYGWGSSSSWFRSLYDYWGQGTQVTVSS,low polyreactivity
12,QVQLVESGGALVQEGGSLRLSCAASGITFAGNAMGWYRQAPGKERELVATITSDGNTNYAVSVKGRFTISRDNAKNTVYLQMNSLKPEDTAVYYCNAEGENRRDRYDYWGQGTQVTVSS,low polyreactivity
13,QVQLVESGGCLDQAGGSLRLSCAASGRIFDHYAMGWYRQAPGKEMELVAAITRSGGITYYADSVKGRFTISRDNAKNTVYLQMNSLKPEDTAVYYCAALSYRYTDKFDYWGQGTQVTVSS,low polyreactivity
14,QVQLVESGGCLDQAGGSLRLSCAASGSIFYYYTMGWSRQAPGKEREFVATITYSGGSTYYADSVKGRITISRDNAKYTVYLQMNSLKPEDTAVYYCNARPRYYDWVDYWGQGTQVTVSS,low polyreactivity
15,QVQLVESGGCLFQAGGSLRLICAASGSISGLYAIGWYRQAPGKERELVARIRWRGDSTYYADSVKGRFTISRDNAKNTVYLQMNSLKPEDTAVYYCAASAYSGKVNKYNYWGQGTQVTVSS,high polyreactivity
16,QVQLVESGGCLIKEVGSLRLSCAASGNIFVFYGKGWYRQAPGKERELVAAIDSGGSSTYYADSVKGRFTISRDNAKNTVYLKMKSLKPEDTAFDYCSARPYYSWNYDYWGQGTQVTVSS,low polyreactivity
17,QVQLVESGGCLLQAGATLRLSCASSGSIFNGKAMGWYRQAPGKERELVAANTWSGGSTYYADSVKGRFTISRDNAKNSVYLQMNSLKPEDTAVYYCNTYTYRGYDYWGQGTQVTVSS,high polyreactivity
18,QVQLVESGGCLVQAGCSLRLSCAASGSTFYSYAMGWYRQAPGKERELVAAINWDGVSTYYADSVKGRFTISRDNAKNTVYLQMNSMKPEDTAVYFCAAELFYGYRISGTYYYWGQGTQVTVSS,low polyreactivity
19,QVQLVESGGCLVQAGGSIRLSFAASGSISIRNAMGWYRQAPGTERELVAAISRGGSTYYADSVKGRFTISRDNAKNTVYLQMNSLNPEDTAVYYFATDGGLYYRGREYAFKYFYWGQGTQLTVSS,high polyreactivity
20,QVQLVESGGCLVQAGGSLRLCCAASGSTFDSNAMGSYRQAPGIERELVAAISSDGSTTYADSVKGRFTISRDNAMNTVYLQMNSLKPEDTAVYYCEYYYWGQGTQVSVSS,low polyreactivity
21,QVQLVESGGCLVQAGGSLRLICAASGRIIDRNAMGWYRHAPGKERELVAAISSSGSTYYADSVKGRFTISRDNAKITVYLQMNSLKPEDTAVYYCNKRARHSGDFVWGHGYWGQGTQVNVSS,low polyreactivity
22,QVQLVESGGCLVQAGGSLRLICAASGRIVKYAMGWYRQAPGKERELVAAISGSGGTTYYADSVKGRFTISRDNAKNTVYLQMNSLKPEDTAVYYCAASRPRPPSSRRMDYWGQGTQVTVSS,high polyreactivity

row,Sequence,polyreactivity (PSR sort gate)
1,QVQLVESGGCLVQAGGSLRLSCAASGFIFAYNAMGWYRQAPGKERELDAAISWSGGSTYYADSVKGRFTISRDNAKNTVYLQMNSLKPEDTAVYYCNKYIRYPFKRYGYWGQGTQVTVSS,high polyreactivity
2,QVQLVESGGCLVQAGGSLRLSCAASGFIFNKYAMGWSRQATGKERELVAAISFRGGRTYYADSVKGRFTISRDNAKNTVYFQMNSLKPEDTAVYYCAAETRDYSEGYYWGQGTQVTVSS,high polyreactivity
3,QVQLVESGGCLVQAGGSLRLSCAASGFIFSTNAMAWYRQARGTERELVAAITGRGTNTYYADSVKGRFTISRDNAKNTVYLQMNSLKPEDTAVYYCAADGGSYSDYDYWGLGTQVTVSS,high polyreactivity
4,QVQLVESGGCLVQAGGSLRLSCAASGFTFRRYTMGWSRQAPGKDRELVAAISGRGGRTYYADSVKGRFTISRDNAKNTVYLQMNSLQPQDTAVYYSAADTPYWQSSKYDYWGQGTQVTVSS,high polyreactivity
5,QVQLVESGGCLVQAGGSLRLSCAASGFTFSNYAMGWYRQPPGKESEFVAAISGTGGSTYYADSVKGRFTISRVNAKNTVYLQMNSLKPEDTAVYYCARRRTYPPGRYYYWGQGTQVTVSS,high polyreactivity
6,QVQLVESGGCLVQAGGSLRLSCAASGFTFVGYAMGWYRQAPGKERELVAAITSSGGSTYYADSVKGRFTISRDNAKNTVYLQMNSLKPEDTAVYYCAAPAPVLSTQKRFDSWGQGTQVTVSS,low polyreactivity
7,QVQLVESGGCLVQAGGSLRLSCAASGFTFYGYAMAWYRQAPGKERELVAYISWSGGTTYYADSVKGRFTISRDNAKNTVYLQMNSLKPEDTAVYYCNAVRYRYGVFPYYYWGQGTQVTVSS,high polyreactivity
8,QVQLVESGGCLVQAGGSLRLSCAASGGTFGPNAKGSYRQAPGKERELVAAISWTTGRTYADSVKGRFTISRDNAKNTVYLQMNSLKPEDTAVYYCATRAYRLDPLQHDYWGQGTQVTVSS,low polyreactivity
9,QVQLVESGGCLVQAGGSLRLSCAASGIIFSGYAMGWYRQAPGKERELVAAISSRGGGPYYADSVKGRFTISRDNAKKTVYLQMNSLKPEDTAVYYCNRVAFTYNYWGQGTQVTVTS,high polyreactivity
10,QVQLVESGGCLVQAGGSLRLSCAASGIIFTYYAMGWYRQAPGKERELVARISSSGGRTYYADSVKGRFTISRDNAKNTVYLQMNSLKPEDTAVYYCAARVFSRPPQPGSPRGYRGFDYWGQGTQVTVSS,high polyreactivity
11,QVQLVESGGCLVQAGGSLRLSCAASGITFESNAMGWYRQAPGIEREFVAAISYDGGDTYYADSVKGRFTISRDNAKNTVYLEMTSLKTEDTAVFYCAAEPGWTMDYWGQGTQVTVSS,low polyreactivity
12,QVQLVESGGCLVQAGGSLRLSCAASGITFYVYAMGWYRQAPGKESELVASITSGGGSTDYADSVKGRVTISRDNAKNTVYLQMNSLKPEDTAVYYCAARYPLLNQLYDFDYWGQGTQVTVSS,low polyreactivity
13,QVQLVESGGCLVQAGGSLRLSCAASGITITANAMGWYRQAPRKERELVAAITWSGGSTYYADSVKGRFTISRDNAKNTVYLQMNSLKPEETAVYYCNAEGIGDREYDYWGQGTQVTVSS,low polyreactivity
14,QVQLVESGGCLVQAGGSLRLSCAASGLIFGDYAMGWYRPAPGKESELVAAITGSFTRTYYADSVKGSFTISRDNAKNTVYLQMNSLKPEDTAVYYCAADWYKRPPYVYWGQGTQVTLSS,low polyreactivity
15,QVQLVESGGCLVQAGGSLRLSCAASGLIFGRNVMGWYRQAPGKERELVAAISWSGGRTYYADSVKGRFSISRDNAKNTVYLQMNSLKPEDTAVYYCNARYSRVWYGCDYWGQGTQVTVSS,high polyreactivity
16,QVQLVESGGCLVQAGGSLRLSCAASGLTFIVYAMGWYRQAPGKERELVADITWSGGSTYYADSVKGRYTISRDNAKITVYLQMNSLKPVDTAVYYCNRQSAKIMDYWGQGTQVNVSS,low polyreactivity
17,QVQLVESGGCLVQAGGSLRLSCAASGNTFPYYDMGWYRQAPGKERELVAVIRTGDDTNYADSVKGRFTISRDNAKNTVYLQMNSLKPEDTAVYYCAVVGPKGADGLPPYNRMDYWGHGTQVTVSS,low polyreactivity
18,QVQLVESGGCLVQAGGSLRLSCAASGNTFVDYAMGWYRQAPGKERELGAAIDQTGGSTYYADSVKGRFTISRDNAKNTVYLQMNSLKPVDTAVYYCASDLSDRKDLYPRWYDYWGQGSQVTVSS,low polyreactivity
19,QVQLVESGGCLVQAGGSLRLSCAASGNTLRTYGMGWYRQAPGKESEFVAAITYSGGSTYYADSVKGRFTISRDNAKNTVYLQMNSLKPEDTAVYYCAARYRSHYRRITPYDSWGQGTQVTVSS,high polyreactivity
20,QVQLVESGGCLVQAGGSLRLSCAASGRIFHQNTMGWYRQAPGKERELVAAISATGGGTNYADSVKGRFTISRDNAKNTVYLQMNSLKPEDTAVYYCAVRPKTSWYSWYYWGQGTQVTVSS,low polyreactivity
21,QVQLVESGGCLVQAGGSLRLSCAASGRIFQYYTMGWYRQAPAKERELVAAITYSGGDTRYADSVKGRFTISRDNAKNTVYLQMNSLKPEDTAVYYCAADYFDQYQYGVWTYGYWGQGTQVTVSS,low polyreactivity
